How the values were obtained:
[1] = target: TDP-43 NTD, 1-80 (UniProt Q13148); test: BS3 crosslinking, SDS-PAGE; conditions: reference: unmodified TDP1-80; sites S48
[2] = target: TDP-43 NTD, 1-80 (UniProt Q13148); test: size exclusion chromatography; conditions: reference: unmodified TDP1-80; sites S48
[3] = target: TDP-43 1-414 (UniProt Q13148); test: sedimentation assay, supernatant by SDS-PAGE; conditions: reference: unmodified TDP1-414; sites S48

binding against the reference [1] | binding against the reference [2] | binding against the reference [3] | Substance
weaker | weaker | – | TDP-43 NTD, 1-80 (from UniProt Q13148) TDP1-80(pS48)
– | – | weaker | TDP-43 1-414 (from UniProt Q13148) TDP1-414(pS48)
